{"source": "paper PMC9822811", "about": "(2023)", "biological_target": "recombinant SARS-CoV-2 RBD of original WT strain (SARS-CoV-2, UniProt P0DTC2 319-541)", "experiment": "SPR", "data": [{"binder": "REGN10987 (antibody, V domains shown) VH: QVQLVESGGGVVQPGRSLRLSCAASGFTFSNYAMYWVRQAPGKGLEWVAVISYDGSNKYYADSVKGRFTISRDNSKNTLYLQMNSLRTEDTAVYYCASGSDYGDYLLVYWGQGTLVTVSS VL: QSALTQPASVSGSPGQSITISCTGTSSDVGGYNYVSWYQQHPGKAPKLMIYDVSKRPSGVSNRFSGSKSGNTASLTISGLQSEDEADYYCNSLTSISTWVFGGGTKLTVL", "values": [{"measurement": "Kd", "value": 1.62, "unit": "nM"}]}]}
